# From patent US20020012964
# Legend:
# [1] = molecular target: T1, human Chk1 (Accession number AF016582) protein prepared as a fusion protein with glutathione S-transferase (GST) (UniProt O14757)
# T1 sequence: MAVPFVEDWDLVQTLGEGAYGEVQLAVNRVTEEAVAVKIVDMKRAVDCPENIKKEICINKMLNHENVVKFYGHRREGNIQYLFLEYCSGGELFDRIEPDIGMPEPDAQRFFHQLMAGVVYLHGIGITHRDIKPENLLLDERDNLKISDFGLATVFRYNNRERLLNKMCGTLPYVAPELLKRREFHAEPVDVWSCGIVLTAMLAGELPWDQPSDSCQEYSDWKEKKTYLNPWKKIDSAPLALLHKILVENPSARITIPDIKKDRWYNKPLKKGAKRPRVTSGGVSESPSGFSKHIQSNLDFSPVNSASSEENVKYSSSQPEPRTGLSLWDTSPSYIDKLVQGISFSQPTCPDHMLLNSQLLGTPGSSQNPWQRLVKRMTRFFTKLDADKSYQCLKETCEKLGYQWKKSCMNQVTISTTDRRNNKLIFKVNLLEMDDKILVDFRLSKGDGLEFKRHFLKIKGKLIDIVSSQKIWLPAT
# [2] = tested on: histone H1 (J. Biochem. 100, 359, 1986)
# [3] = molecular target: GST-weel (Accession number U10564) (UniProt P30291)
# [4] = molecular target: T2, GST-cdc25c (200 to 250 amino acids) (UniProt P30307)
# T2 sequence: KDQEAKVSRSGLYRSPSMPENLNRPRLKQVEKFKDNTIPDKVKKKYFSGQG
# [5] = molecular target: T3, GST-cdc25c (full-length) (Accession number L26584) (UniProt P30307)
# T3 sequence: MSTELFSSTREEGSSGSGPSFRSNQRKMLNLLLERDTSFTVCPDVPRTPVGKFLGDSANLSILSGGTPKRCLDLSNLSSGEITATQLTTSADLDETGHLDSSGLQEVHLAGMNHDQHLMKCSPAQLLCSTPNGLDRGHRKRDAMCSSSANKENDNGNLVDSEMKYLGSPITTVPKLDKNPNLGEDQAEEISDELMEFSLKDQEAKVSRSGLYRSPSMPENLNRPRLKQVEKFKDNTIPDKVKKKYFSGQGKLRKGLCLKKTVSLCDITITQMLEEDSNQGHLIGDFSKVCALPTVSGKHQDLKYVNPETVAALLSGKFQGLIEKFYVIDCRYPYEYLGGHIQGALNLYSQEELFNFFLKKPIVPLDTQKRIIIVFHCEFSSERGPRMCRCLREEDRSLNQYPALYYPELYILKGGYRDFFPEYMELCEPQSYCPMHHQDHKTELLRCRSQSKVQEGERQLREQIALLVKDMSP
# GST-weel (Accession number U10564), sequence (P30291 whole entry, looked up, the tested form may be a part): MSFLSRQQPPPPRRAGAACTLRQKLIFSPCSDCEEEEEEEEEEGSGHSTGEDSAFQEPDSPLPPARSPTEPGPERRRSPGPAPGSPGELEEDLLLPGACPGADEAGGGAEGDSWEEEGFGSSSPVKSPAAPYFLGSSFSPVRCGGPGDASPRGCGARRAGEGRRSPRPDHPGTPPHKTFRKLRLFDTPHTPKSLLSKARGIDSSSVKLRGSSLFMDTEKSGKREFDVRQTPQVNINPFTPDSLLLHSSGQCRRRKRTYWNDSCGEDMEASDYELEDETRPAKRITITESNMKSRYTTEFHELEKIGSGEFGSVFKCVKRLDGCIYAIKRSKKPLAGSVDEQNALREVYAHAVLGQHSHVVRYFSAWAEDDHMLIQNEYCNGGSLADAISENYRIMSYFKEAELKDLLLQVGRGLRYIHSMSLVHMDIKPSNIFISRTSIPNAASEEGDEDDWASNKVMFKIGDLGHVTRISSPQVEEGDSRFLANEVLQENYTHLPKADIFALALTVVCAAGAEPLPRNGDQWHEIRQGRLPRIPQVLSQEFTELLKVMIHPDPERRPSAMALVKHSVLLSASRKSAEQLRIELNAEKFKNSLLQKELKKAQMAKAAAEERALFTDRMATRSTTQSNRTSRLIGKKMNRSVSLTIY
Substance,"in vitro kinase assay ([gamma-32P]ATP, SDS-PAGE, autoradiography) [1]","in vitro kinase assay ([gamma-32P]ATP, SDS-PAGE, autoradiography) [2]","in vitro kinase assay ([gamma-32P]ATP, SDS-PAGE, autoradiography) [3]","in vitro kinase assay ([gamma-32P]ATP, SDS-PAGE, autoradiography) [4]","in vitro kinase assay ([gamma-32P]ATP, SDS-PAGE, autoradiography) [5]"
"hCds1 KM mutant (249th lysine converted to methionine, myc/6xHis-tagged, expressed in Sf9 cells)",failed to phosphorylate any substrate,failed to phosphorylate any substrate,failed to phosphorylate any substrate,failed to phosphorylate any substrate,failed to phosphorylate any substrate
"recombinant ""hCds1"" (human Cds1, wild type, myc/6xHis-tagged, expressed in Sf9 cells)",hardly phosphorylated,efficiently phosphorylated,hardly phosphorylated,efficiently phosphorylated,efficiently phosphorylated
